B1: HESX1 (parent)
chain: HVPNPPSGISFPSVVDHPMPEERA

Variants of: B1
Assay: protein stability index of a GFP-peptide fusion (GPS, HEK-293T) (PSI 1-6); higher = more stable
Details: c terminus: a fixed tail appended
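Also: lentivirally expressed fusions sorted by FACS into six bins by GFP to DsRed ratio, PSI derived from sequencing read proportions per bin multiplied by bin number.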

Question: For HVPNPMSGISFPSVVDHPMPEERA [P6M], which protein stability index is on record?
Answer: 2.63

Question: With HVPNPNSGISFPSVVDHPMPEERA [P6N] as the variant, how does the protein stability index read?
Answer: 2

Question: With HVPNPQSGISFPSVVDHPMPEERA [P6Q] as the variant, how does the protein stability index read?
Answer: 2.67

Question: Which protein stability index does the source give for HVPNPRSGISFPSVVDHPMPEERA [P6R] here?
Answer: 1.71

Question: For HVPNPSSGISFPSVVDHPMPEERA [P6S], which protein stability index is on record?
Answer: 2.4

Question: With HVPNPTSGISFPSVVDHPMPEERA [P6T] as the variant, how does the protein stability index read?
Answer: 2.13

Question: Which protein stability index does the source give for HVPNPVSGISFPSVVDHPMPEERA [P6V] here?
Answer: 2.11

Question: For HVPNPWSGISFPSVVDHPMPEERA [P6W], which protein stability index is on record?
Answer: 2.25

Question: Which protein stability index does the source give for HVPNPYSGISFPSVVDHPMPEERA [P6Y] here?
Answer: 2.39

Question: For HVPNPPAGISFPSVVDHPMPEERA [S7A], which protein stability index is on record?
Answer: 3.88

Question: For HVPNPPCGISFPSVVDHPMPEERA [S7C], which protein stability index is on record?
Answer: 2.38

Question: Which protein stability index does the source give for HVPNPPDGISFPSVVDHPMPEERA [S7D] here?
Answer: 2.8

Question: With HVPNPPEGISFPSVVDHPMPEERA [S7E] as the variant, how does the protein stability index read?
Answer: 3.57

Question: Which protein stability index does the source give for HVPNPPFGISFPSVVDHPMPEERA [S7F] here?
Answer: 2.15

Question: Which protein stability index does the source give for HVPNPPGGISFPSVVDHPMPEERA [S7G] here?
Answer: 2.4

Question: Which protein stability index does the source give for HVPNPPHGISFPSVVDHPMPEERA [S7H] here?
Answer: 2.54

Question: With HVPNPPIGISFPSVVDHPMPEERA [S7I] as the variant, how does the protein stability index read?
Answer: 3.4

Question: Which protein stability index does the source give for HVPNPPKGISFPSVVDHPMPEERA [S7K] here?
Answer: 2.93

Question: With HVPNPPLGISFPSVVDHPMPEERA [S7L] as the variant, how does the protein stability index read?
Answer: 3.61

Question: With HVPNPPMGISFPSVVDHPMPEERA [S7M] as the variant, how does the protein stability index read?
Answer: 2.74

Question: With HVPNPPNGISFPSVVDHPMPEERA [S7N] as the variant, how does the protein stability index read?
Answer: 2.99

Question: For HVPNPPPGISFPSVVDHPMPEERA [S7P], which protein stability index is on record?
Answer: 2.7

Question: With HVPNPPQGISFPSVVDHPMPEERA [S7Q] as the variant, how does the protein stability index read?
Answer: 2.84

Question: With HVPNPPRGISFPSVVDHPMPEERA [S7R] as the variant, how does the protein stability index read?
Answer: 2.9

Question: For HVPNPPTGISFPSVVDHPMPEERA [S7T], which protein stability index is on record?
Answer: 2.75

Question: With HVPNPPVGISFPSVVDHPMPEERA [S7V] as the variant, how does the protein stability index read?
Answer: 3.3

Question: Which protein stability index does the source give for HVPNPPWGISFPSVVDHPMPEERA [S7W] here?
Answer: 1.71

Question: For HVPNPPYGISFPSVVDHPMPEERA [S7Y], which protein stability index is on record?
Answer: 2.04

Question: For HVPNPPSAISFPSVVDHPMPEERA [G8A], which protein stability index is on record?
Answer: 3.2

Question: Which protein stability index does the source give for HVPNPPSCISFPSVVDHPMPEERA [G8C] here?
Answer: 2.36

Question: With HVPNPPSDISFPSVVDHPMPEERA [G8D] as the variant, how does the protein stability index read?
Answer: 4.1

Question: With HVPNPPSEISFPSVVDHPMPEERA [G8E] as the variant, how does the protein stability index read?
Answer: 3.01

Question: For HVPNPPSFISFPSVVDHPMPEERA [G8F], which protein stability index is on record?
Answer: 2.84

Question: With HVPNPPSHISFPSVVDHPMPEERA [G8H] as the variant, how does the protein stability index read?
Answer: 3.49

Question: Which protein stability index does the source give for HVPNPPSIISFPSVVDHPMPEERA [G8I] here?
Answer: 2.83

Question: With HVPNPPSKISFPSVVDHPMPEERA [G8K] as the variant, how does the protein stability index read?
Answer: 3.62

Question: For HVPNPPSLISFPSVVDHPMPEERA [G8L], which protein stability index is on record?
Answer: 3.17

Question: For HVPNPPSMISFPSVVDHPMPEERA [G8M], which protein stability index is on record?
Answer: 2.59

Question: Which protein stability index does the source give for HVPNPPSNISFPSVVDHPMPEERA [G8N] here?
Answer: 3.48

Question: Which protein stability index does the source give for HVPNPPSPISFPSVVDHPMPEERA [G8P] here?
Answer: 4.09

Question: Which protein stability index does the source give for HVPNPPSQISFPSVVDHPMPEERA [G8Q] here?
Answer: 3.18

Question: With HVPNPPSRISFPSVVDHPMPEERA [G8R] as the variant, how does the protein stability index read?
Answer: 2.94

Question: For HVPNPPSSISFPSVVDHPMPEERA [G8S], which protein stability index is on record?
Answer: 3.03

Question: For HVPNPPSTISFPSVVDHPMPEERA [G8T], which protein stability index is on record?
Answer: 2.91

Question: With HVPNPPSVISFPSVVDHPMPEERA [G8V] as the variant, how does the protein stability index read?
Answer: 2.87

Question: With HVPNPPSWISFPSVVDHPMPEERA [G8W] as the variant, how does the protein stability index read?
Answer: 2.87

Question: For HVPNPPSYISFPSVVDHPMPEERA [G8Y], which protein stability index is on record?
Answer: 2.09

Question: For HVPNPPSGASFPSVVDHPMPEERA [I9A], which protein stability index is on record?
Answer: 3.04

Question: For HVPNPPSGCSFPSVVDHPMPEERA [I9C], which protein stability index is on record?
Answer: 2.66

Question: With HVPNPPSGDSFPSVVDHPMPEERA [I9D] as the variant, how does the protein stability index read?
Answer: 4.1

Question: Which protein stability index does the source give for HVPNPPSGESFPSVVDHPMPEERA [I9E] here?
Answer: 3.58

Question: For HVPNPPSGFSFPSVVDHPMPEERA [I9F], which protein stability index is on record?
Answer: 3.22

Question: For HVPNPPSGGSFPSVVDHPMPEERA [I9G], which protein stability index is on record?
Answer: 3.59

Question: With HVPNPPSGHSFPSVVDHPMPEERA [I9H] as the variant, how does the protein stability index read?
Answer: 3.24

Question: With HVPNPPSGKSFPSVVDHPMPEERA [I9K] as the variant, how does the protein stability index read?
Answer: 3.53

Question: With HVPNPPSGLSFPSVVDHPMPEERA [I9L] as the variant, how does the protein stability index read?
Answer: 2.14

Question: For HVPNPPSGMSFPSVVDHPMPEERA [I9M], which protein stability index is on record?
Answer: 2.5

Question: With HVPNPPSGNSFPSVVDHPMPEERA [I9N] as the variant, how does the protein stability index read?
Answer: 3.31

Question: For HVPNPPSGPSFPSVVDHPMPEERA [I9P], which protein stability index is on record?
Answer: 2.23

Question: Which protein stability index does the source give for HVPNPPSGQSFPSVVDHPMPEERA [I9Q] here?
Answer: 3.62

Question: Which protein stability index does the source give for HVPNPPSGRSFPSVVDHPMPEERA [I9R] here?
Answer: 2.67

Question: Which protein stability index does the source give for HVPNPPSGSSFPSVVDHPMPEERA [I9S] here?
Answer: 3.33

Question: Which protein stability index does the source give for HVPNPPSGTSFPSVVDHPMPEERA [I9T] here?
Answer: 3.8

Question: For HVPNPPSGVSFPSVVDHPMPEERA [I9V], which protein stability index is on record?
Answer: 2.94

Question: Which protein stability index does the source give for HVPNPPSGWSFPSVVDHPMPEERA [I9W] here?
Answer: 2.37

Question: Which protein stability index does the source give for HVPNPPSGYSFPSVVDHPMPEERA [I9Y] here?
Answer: 2.43

Question: For HVPNPPSGIAFPSVVDHPMPEERA [S10A], which protein stability index is on record?
Answer: 2.79

Question: Which protein stability index does the source give for HVPNPPSGICFPSVVDHPMPEERA [S10C] here?
Answer: 2.19

Question: With HVPNPPSGIDFPSVVDHPMPEERA [S10D] as the variant, how does the protein stability index read?
Answer: 3.77

Question: Which protein stability index does the source give for HVPNPPSGIEFPSVVDHPMPEERA [S10E] here?
Answer: 3.39

Question: For HVPNPPSGIFFPSVVDHPMPEERA [S10F], which protein stability index is on record?
Answer: 2.61

Question: For HVPNPPSGIGFPSVVDHPMPEERA [S10G], which protein stability index is on record?
Answer: 2.25

Question: For HVPNPPSGIHFPSVVDHPMPEERA [S10H], which protein stability index is on record?
Answer: 2.81

Question: For HVPNPPSGIIFPSVVDHPMPEERA [S10I], which protein stability index is on record?
Answer: 2.59

Question: For HVPNPPSGIKFPSVVDHPMPEERA [S10K], which protein stability index is on record?
Answer: 2.38

Question: For HVPNPPSGILFPSVVDHPMPEERA [S10L], which protein stability index is on record?
Answer: 2.38

Question: For HVPNPPSGIMFPSVVDHPMPEERA [S10M], which protein stability index is on record?
Answer: 2.56

Question: For HVPNPPSGINFPSVVDHPMPEERA [S10N], which protein stability index is on record?
Answer: 3.5

Question: Which protein stability index does the source give for HVPNPPSGIPFPSVVDHPMPEERA [S10P] here?
Answer: 2.29

Question: With HVPNPPSGIQFPSVVDHPMPEERA [S10Q] as the variant, how does the protein stability index read?
Answer: 2.42

Question: With HVPNPPSGIRFPSVVDHPMPEERA [S10R] as the variant, how does the protein stability index read?
Answer: 2.03

Question: For HVPNPPSGITFPSVVDHPMPEERA [S10T], which protein stability index is on record?
Answer: 2.97

Question: Which protein stability index does the source give for HVPNPPSGIVFPSVVDHPMPEERA [S10V] here?
Answer: 2.58

Question: With HVPNPPSGIWFPSVVDHPMPEERA [S10W] as the variant, how does the protein stability index read?
Answer: 1.97

Question: With HVPNPPSGIYFPSVVDHPMPEERA [S10Y] as the variant, how does the protein stability index read?
Answer: 2.18

Question: With HVPNPPSGISAPSVVDHPMPEERA [F11A] as the variant, how does the protein stability index read?
Answer: 5

Question: With HVPNPPSGISCPSVVDHPMPEERA [F11C] as the variant, how does the protein stability index read?
Answer: 4.39

Question: With HVPNPPSGISDPSVVDHPMPEERA [F11D] as the variant, how does the protein stability index read?
Answer: 5.23

Question: For HVPNPPSGISEPSVVDHPMPEERA [F11E], which protein stability index is on record?
Answer: 5.4

Question: With HVPNPPSGISGPSVVDHPMPEERA [F11G] as the variant, how does the protein stability index read?
Answer: 4.65

Question: Which protein stability index does the source give for HVPNPPSGISHPSVVDHPMPEERA [F11H] here?
Answer: 4.48

Question: Which protein stability index does the source give for HVPNPPSGISIPSVVDHPMPEERA [F11I] here?
Answer: 4.39

Question: Which protein stability index does the source give for HVPNPPSGISKPSVVDHPMPEERA [F11K] here?
Answer: 5.12

Question: For HVPNPPSGISLPSVVDHPMPEERA [F11L], which protein stability index is on record?
Answer: 4.93

Reference: the supplement of paper PMC10567573
